According to paper PMC7350762:

Target: Myc-tagged MKL-1 (1–705) (MKL-1△TAD) (UniProt Q969V6)
Sequence of UniProt Q969V6 (Q969V6 1-705): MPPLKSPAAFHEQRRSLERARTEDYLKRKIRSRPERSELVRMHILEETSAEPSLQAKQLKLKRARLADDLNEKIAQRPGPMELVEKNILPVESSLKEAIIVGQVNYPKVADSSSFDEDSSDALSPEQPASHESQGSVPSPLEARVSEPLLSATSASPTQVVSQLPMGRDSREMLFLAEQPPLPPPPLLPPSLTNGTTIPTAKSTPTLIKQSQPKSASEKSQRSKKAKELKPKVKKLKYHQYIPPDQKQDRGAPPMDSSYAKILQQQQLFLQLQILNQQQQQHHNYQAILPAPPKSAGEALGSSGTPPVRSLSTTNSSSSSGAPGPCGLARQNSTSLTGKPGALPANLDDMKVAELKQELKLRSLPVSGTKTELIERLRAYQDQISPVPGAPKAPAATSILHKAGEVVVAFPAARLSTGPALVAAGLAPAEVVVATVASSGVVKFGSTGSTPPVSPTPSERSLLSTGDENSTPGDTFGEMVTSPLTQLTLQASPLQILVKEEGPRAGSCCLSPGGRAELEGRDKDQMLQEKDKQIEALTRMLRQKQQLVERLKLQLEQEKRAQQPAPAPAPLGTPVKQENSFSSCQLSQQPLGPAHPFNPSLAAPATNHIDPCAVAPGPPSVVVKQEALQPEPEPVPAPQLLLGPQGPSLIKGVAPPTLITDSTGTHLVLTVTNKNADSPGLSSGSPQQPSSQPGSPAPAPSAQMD

- reduction in MKL-1 transactivation of the Foxp3 reporter (luciferase assay, HEK-293 T cells) by the mutation of the TAD of MKL-1: 60%
Substance: Flag-tagged STAT5b (WT-STAT5b) (from UniProt P51692 1-787) (natural protein)
